Consider two proteins from patent US20160138042A1 (COMMONWEALTH SCIENTIFIC AND INDUSTRIAL RESEARCH ORGANISATION, published 2016).

This data set concerns the molecule itself. The experiment in a line: directed yeast two-hybrid, self-association (same fragment as bait and prey).

B1: Sr33 CC1-225 (CC-NB domain of Sr33) (other)
chain: MDIVTGAIAKLIPKLGELLVGEYKLHKGVKKNIEDLLKELKTMNAALIKIGEVPPDQLDSQDKLWADEVRELSYVIEDAVDKFLVRVHGVEPDDNTNGFKGLMKRTTKLLKKVVDKHGIAHAIKDIKKELQEVAARRDRNKFDGIASIPTEAIDPRLRALYIEAAELVGIYGKRDQELMSLLSLEGDDASTKKLKKVSIVGFGGLGKTTLAKAVYEKIKGDFDCH
notes: Expressed as both bait and prey in yeast two-hybrid; The fused GAL4 domains are not included; also called Sr33 CC225
In the case of B1, the binding result is “no binding”.

B2: Sr33 CC1-125 (truncated portion of the CC domain of Sr33) (other)
chain: MDIVTGAIAKLIPKLGELLVGEYKLHKGVKKNIEDLLKELKTMNAALIKIGEVPPDQLDSQDKLWADEVRELSYVIEDAVDKFLVRVHGVEPDDNTNGFKGLMKRTTKLLKKVVDKHGIAHAIKD
notes: Expressed as both bait and prey in yeast two-hybrid; The fused GAL4 domains are not included; also called Sr33 CC125
Regarding B2, the binding result is on record as “no binding”.
